From patent US7662584, “Increased production of secreted proteins by recombinant eukaryotic cells” (Danisco US Inc.)

T1: HAC1-malE fusion (HAC1 DNA binding domain and leucine zipper fragment) (Trichoderma reesei, UniProt Q8TFF3 SEQ:84-203)
T1 chain: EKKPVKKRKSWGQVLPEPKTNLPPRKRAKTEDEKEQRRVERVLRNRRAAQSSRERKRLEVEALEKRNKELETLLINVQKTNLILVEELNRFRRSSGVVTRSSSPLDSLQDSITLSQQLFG


Legend:
Settings in all cases: tags: N-terminal MBP (malE), pMAL-p2X, E. coli; label: 32P-dCTP Klenow fill-in
[1] = target: T1, HAC1-malE fusion (HAC1 DNA binding …); experiment: EMSA; specific binding; 10 mM MgCl2, 50 mM KCl, pH 6.9, poly(dIdC), 25 C
Experimental: (§1) FIG. 16 depicts bandshift experiments, where the binding of the malE-HAC1 fusion protein to the putative UPR element sequences found in *T. reesei* pdi1 and bip1 promoters was tested. The oligonucleotides used in the binding reactions are shown on the top. Lanes 1, 12 and 16, no protein; lanes 2, 4-7, 8-11. 13-15 and 17-19. malE-HAC1 fusion protein; lane 3. malE protein alone. The binding was competed with unlabelled oligonucleotides on lanes 5 (20× excess); lanes 6, 10, 14 and 18 (50× excess) and lanes 7, 11, 15, and 19 (200× excess). Alignment of the UPR element sequences that bind the HAC1-malE protein is shown below wherein the sequence of pdiUPREII is set forth in SEQ ID No: 61, the sequence of bipUPREI is set forth in SEQ ID No. 62, and the sequence of bipUPREII is set forth in SEQ ID No. 63.
The oligonucleotides used in binding reactions were annealed in the concentration of […] in 50 mM Tris, pH 8.0, 10 mM MgCl_2, 1 mM spermidine and 5 mM DTT by heating them at 65° C. for 10 minutes and letting them cool down to room temperature during 2 hours. The oligonucleotides were labelled by incubating 100 ng of the annealed oligonucleotide in 10 mM Tris, pH 8.0, 5 mM MgCl_2 with 20 μCi of ^32P-dCTP and 2.5 U Klenow polymerase (Boehringer Mannheim) at 37° C. for 30 minutes. The binding reactions between the oligonucleotides having the putative UPR elements and the proteins were carried out with 0.5-2 μg of the HAC1-malE fusion protein or 2 μg of the malE protein and 1 ng of the annealed and labelled oligonucleotide in a mixture containing 20 mM HEPES, pH 6.9, 50 mM KCl, 10 mM MgCl_2, 0.25 mM EDTA, 0.5 mM DTT, 2% Ficoll, 5% glycerol and 100 μg/ml poly(dIdC) DNA. The competing oligonucleotides were used in 20-200 times excess of the labelled oligonucleotide. The binding eaction mixtures were incubated for 30 minutes at 25° C. and run in a 5% polyacrylamide gel with 10% glycerol in 12.5 mM Tris-borate, pH 8.3, 0.6 mM EDTA for three hours. The gel was dried on a filter paper and exposed onto an X-ray film.

[2] = target: T1, HAC1-malE fusion (HAC1 DNA binding …); experiment: EMSA; competed by excess unlabelled oligo; 10 mM MgCl2, 50 mM KCl, pH 6.9, poly(dIdC), 25 C
Experimental: as §1
(§2) The oligonucleotides used in binding reactions were annealed in the concentration of […] in 50 mM Tris, pH 8.0, 10 mM MgCl_2, 1 mM spermidine and 5 mM DTT by heating them at 65° C. for 10 minutes and letting them cool down to room temperature during 2 hours. The oligonucleotides were labelled by incubating 100 ng of the annealed oligonucleotide in 10 mM Tris, pH 8.0, 5 mM MgCl_2 with 20 μCi of ^32P-dCTP and 2.5 U Klenow polymerase (Boehringer Mannheim) at 37° C. for 30 minutes. […]

[3] = target: T1, HAC1-malE fusion (HAC1 DNA binding …); experiment: EMSA; no binding at all; 10 mM MgCl2, 50 mM KCl, pH 6.9, poly(dIdC), 25 C
Experimental: as §1, §2

Row | Binder | binding result [1] | also measured
1 | pdiUPREII (dsDNA) DNA 1: GGATCTTGCATAGCCAGATGTGGCCTCGATTGACT DNA 2: AGTCAATCGAGGCCACATCTGGCTATGCAAGATCC | binds | 
2 | bipUPREII (dsDNA) DNA 1: GGGCGTGGAGAAGCGAGAAGTGGCCTCTTCTTCTCC DNA 2: GGAGAAGAAGAGGCCACTTCTCGCTTCTCCACGCCC | binds | 
3 | pdiUPREI+II (dsDNA) DNA 1: CGGCTGAACCAGCGCGGCAGCCAGATGTGGCCAAAGGG DNA 2: CCCTTTGGCCACATCTGGCTGCCGCGCTGGTTCAGCCG |  | binding result [2]: binds
4 | bipUPREI (dsDNA) DNA 1: GGATTAGAAAACGCCAACGTGTCCATAACGGTC DNA 2: GACCGTTATGGACACGTTGGCGTTTTCTAATCC | binds | 
5 | pdiUPREI (dsDNA) DNA 1: GGTACCTGCTAACCAGCGCGGCATGATTCAAC DNA 2: GTTGAATCATGCCGCGCTGGTTAGCAGGTACC |  | binding result [3]: no binding
